This data set deals with sub p53-1 and sub p53-2 peptides. In words: ELISA system for measuring the deacetylase activity (liquid and solid phase). It is filed as biochemical, human. The settings on record: 0 to 10 μg/ml; liquid and solid phases; depending on the concentration; FIGS. 11 and 12. The protocol:
Two peptide substrates “Sub Ac p53-1” (SEQ ID NO: 17/Bio-STSRHKK(Ac)LMFKTE and “Sub Ac p53-2” (SEQ ID NO: 18/Bio-SHLKSKK (Ac) GQSTSR) in which an acetyl group was introduced into the ε amino group on the 373rd and 382nd lysine residues of human p53, were prepared by a peptide synthesizer. An amino acid in a peptide is shown by the one-letter code and “Bio” at the amino ends means biotin. K(Ac) indicates an acetylated lysine residue. Ninety percent or higher purity of the synthesized peptides was confirmed by HPLC. “Sub Ac p53-1” and “Sub Ac p53-2” were composed of amino acid residues 376 to 388 and 367 to 379, of human p53, respectively.
Two peptides substrate were dissolved in PBS to 10 μg/ml. 50 μl of each peptide solution were added to each well on a microtiter plate for ELISA, and sensitized at 4° C. overnight. […]
The synthesized peptide substrates and the recombinant deacetylase were reacted in the liquid phase, and the enzyme activity was measured by ELISA system using a microtiter plate. […] 100 μl of 1.5 N phosphate solution were added thereto to terminate the coloring reaction, and absorbance at 450 nm was measured using a microtiter plate reader. • Solid Phase Analysis System (Refer to FIG. 4) […]

As to “recombinant HDAC1: recombinant deacetylase HDAC1/RPD3 (full length) purified from E. coli”, the “deacetylase activities in sub p53-1 and sub p53-2 peptides” value is reported as “detected”.

The values above are taken from patent US6884597B1, “Method for detecting acetyltransferase and deacetylase activities and method for screening inhibitors or enhancers of these enzymes” (Medical & Biological Laboratories, Co., Ltd., priority 1998, dated 2005).
